Publication PMC2396407

Columns and labels:
TAp63γ [1] = molecular target: T1, TAp63γ (UniProt Q9H3D4-5 40-487); assay: EMSA
T1 sequence: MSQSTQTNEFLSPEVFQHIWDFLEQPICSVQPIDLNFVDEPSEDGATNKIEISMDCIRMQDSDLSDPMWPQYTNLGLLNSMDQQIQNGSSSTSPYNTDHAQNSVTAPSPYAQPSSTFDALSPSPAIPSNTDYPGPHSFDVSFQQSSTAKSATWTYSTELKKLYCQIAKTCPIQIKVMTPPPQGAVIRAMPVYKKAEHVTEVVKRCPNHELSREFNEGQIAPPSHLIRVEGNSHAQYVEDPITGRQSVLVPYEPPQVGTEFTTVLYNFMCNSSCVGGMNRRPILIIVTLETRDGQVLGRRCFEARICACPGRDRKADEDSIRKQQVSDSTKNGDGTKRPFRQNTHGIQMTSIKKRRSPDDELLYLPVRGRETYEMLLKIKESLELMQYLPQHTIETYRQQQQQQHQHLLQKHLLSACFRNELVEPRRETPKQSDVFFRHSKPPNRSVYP

p53 [2] = molecular target: T2, p53 (UniProt P04637 1-393); assay: EMSA
T2 sequence (P04637 whole entry): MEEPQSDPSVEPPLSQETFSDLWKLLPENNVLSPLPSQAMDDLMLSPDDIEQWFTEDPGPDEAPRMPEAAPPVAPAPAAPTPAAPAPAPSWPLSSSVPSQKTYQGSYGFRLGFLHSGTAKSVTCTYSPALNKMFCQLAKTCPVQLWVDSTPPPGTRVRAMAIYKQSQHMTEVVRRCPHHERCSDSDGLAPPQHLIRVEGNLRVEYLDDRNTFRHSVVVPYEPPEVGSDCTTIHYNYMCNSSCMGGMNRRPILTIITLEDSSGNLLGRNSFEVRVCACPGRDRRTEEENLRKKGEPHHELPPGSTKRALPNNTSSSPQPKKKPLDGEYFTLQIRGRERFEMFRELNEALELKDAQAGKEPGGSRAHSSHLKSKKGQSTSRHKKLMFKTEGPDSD

TAp63γ [3] = molecular target: T1, TAp63γ; assay: competition
p53 [4] = molecular target: T2, p53; assay: competition
TAp63γ [5] = molecular target: T1, TAp63γ; assay: competition; remark: listed apart in the source
p53 [6] = molecular target: T2, p53; assay: competition; remark: listed apart in the source
p53 [7] = molecular target: T2, p53; assay: EMSA, supershift
TAp63γ [8] = molecular target: T1, TAp63γ; assay: EMSA, supershift

B1: mdm2 p53 site (dsDNA)
DNA 1: GGGCGGCCGCTGGTCAAGTTGGGACACGTCCGG
DNA 2: CCGGACGTGTCCCAACTTGACCAGCGGCCGCCC
- binding result (TAp63γ [1]): binds
- binding result (p53 [2]): binds

B2: S100A2 site 2 mut-2 (dsDNA)
DNA 1: GGGTGGGATCATGTTGAGGCATGTTTGGTTTCCTT
DNA 2: AAGGAAACCAAACATGCCTCAACATGATCCCACCC
- binding result (TAp63γ [3]): binds
- binding result (p53 [4]): binds

B3: S100A2 site 2 mut-1 (dsDNA)
DNA 1: GGGTGGGATTGGATTGAGGTGGATTTGGTTTCCTT
DNA 2: AAGGAAACCAAATCCACCTCAATCCAATCCCACCC
- binding result (TAp63γ [5]): no binding
- binding result (p53 [6]): no binding

B4: p21 (p21WAF1/CIP1 p53 site) (dsDNA)
DNA 1: GGCCATCAGGAACATGTCCCAACATGTTGAGCTCT
DNA 2: AGAGCTCAACATGTTGGGACATGTTCCTGATGGCC
- binding result (p53 [7]): binds
- binding result (TAp63γ [8]): binds
